Results taken from the supplement of paper PMC7877785.
± gives the uncertainty stated by the source.

Test: self-splicing fitness, log relative to wild type (ln ratio); higher = more splicing; Tetrahymena group I intron in knt gene, E. coli kanamycin selection, DiMSum; sequences stand for … in CUCUCU…GGAGGGAAAAGUUAUCAGGCAUGCACCUGGUAGCUAGUCUUUAAACCAAUAGAUUGCAUCGGUUUAAAAGGCAAGACCGUCAAAUUGCGGGAAAGGGGUCAACAGCCGUUCAGUACCAAGUCUCAGGGGAAACUUUGAGAUGGCCUUGCAAAGGGUAUGGUAAUAAGCUGACGGACAUGGUCCUAACCACGCAGCCAAGUCCUAAGUCAACAGAUCUUCUGUUGAUAUGGAUGCAGUUCACAGACUAAAUGUCGGUCGGGGAAGAUGUAUUCUUCUCAUAAGAUAUAGUCGGACCUCUCCUUAAUGGGAGCUAGCGGAUGAAGUGAUGCAACACUGGAGCCGCUGGGAACUAAUUUGUAUGCGAAAGUAUAUUGAUUAGUUUUGGAGUACUCGUGGUCG
Procedure, shortened: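 A randomised library covering all eight P1ex-region intron nucleotides was built with the intron in the knt kanamycin-resistance gene on pET-22b(+) and held in E. coli BL21(DE3). Cells were grown overnight at 37°C or 30°C on LB agar, with or without 25 μg/mL kanamycin, plus 100 μg/mL carbenicillin, 50 μM IPTG and 0.2% rhamnose, and pooled colonies were amplicon-sequenced on an Illumina HiSeq 2500. DiMSum fitness is the error-weighted combination of wild-type-normalised replicate fold changes, kanamycin versus none.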

| Sequence | self-splicing fitness (ln) (30 °C) | self-splicing fitness (ln) (37 °C) |
| --- | --- | --- |
| AUUCAGCAAUAUUACGAUUC | -1.62 ± 0.059 | -0.407 ± 0.077 |
| AUUCAGCAAUAUUACGAUUG | -1.88 ± 0.16 | -1.05 ± 0.2 |
| AUUCAGCAAUAUUACGAUUU | 0.203 ± 0.088 | 0.898 ± 0.11 |
| AUUCAGCAAUAUUACGCAAU | -2.4 ± 0.23 | -0.772 ± 0.22 |
| AUUCAGCAAUAUUACGCAUG | -1.3 ± 0.082 | -0.553 ± 0.11 |
| AUUCAGCAAUAUUACGCCCC | 0.0239 ± 0.13 | 0.082 ± 0.23 |
| AUUCAGCAAUAUUACGCCGU | -0.349 ± 0.15 | 0.177 ± 0.14 |
| AUUCAGCAAUAUUACGCGAA | -1.9 ± 0.15 | -1.73 ± 0.17 |
| AUUCAGCAAUAUUACGCGUC | -1.11 ± 0.17 | -0.615 ± 0.21 |
| AUUCAGCAAUAUUACGCUCA | -0.0142 ± 0.092 | -0.0382 ± 0.14 |
| AUUCAGCAAUAUUACGGACU | 0.0759 ± 0.063 | 0.414 ± 0.083 |
| AUUCAGCAAUAUUACGGCAU | -0.321 ± 0.065 | 1.01 ± 0.1 |
| AUUCAGCAAUAUUACGGUCU | -0.633 ± 0.073 | 0.126 ± 0.093 |
| AUUCAGCAAUAUUACGGUUC | -1.64 ± 0.13 | -0.855 ± 0.16 |
| AUUCAGCAAUAUUACGUAAC | -0.841 ± 0.17 | 1.08 ± 0.19 |
| AUUCAGCAAUAUUACGUAGU | -0.994 ± 0.047 | -0.0257 ± 0.069 |
| AUUCAGCAAUAUUACGUCAU | -0.863 ± 0.059 | 0.0811 ± 0.071 |
| AUUCAGCAAUAUUACGUGAA | -0.88 ± 0.065 | -0.398 ± 0.084 |
| AUUCAGCAAUAUUACGUGCU | -2.95 ± 0.2 | -1.81 ± 0.3 |
| AUUCAGCAAUAUUACGUUAG | -3.78 ± 0.15 | -1.52 ± 0.1 |
| AUUGAGCAAUAUUACGAAUG | -2.9 ± 0.21 | -3.15 ± 0.3 |
| AUUGAGCAAUAUUACGACGC | -2.27 ± 0.22 | -2.35 ± 0.28 |
| AUUGAGCAAUAUUACGAGCA | -3.01 ± 0.47 | -1.93 ± 0.42 |
| AUUGAGCAAUAUUACGAGGC | -3.05 ± 0.36 | -2.78 ± 0.4 |
| AUUGAGCAAUAUUACGAUAC | -3.01 ± 0.42 | -1.65 ± 0.34 |

| Sequence | self-splicing fitness (ln) (30 °C) | self-splicing fitness (ln) (37 °C) |
| --- | --- | --- |
| AUUGAGCAAUAUUACGAUUC | -2.51 ± 0.22 | -2.86 ± 0.47 |
| AUUGAGCAAUAUUACGCAAA | -3.02 ± 0.29 | – |
| AUUGAGCAAUAUUACGCCCG | -3.02 ± 0.47 | – |
| AUUGAGCAAUAUUACGCCGG | -2.87 ± 0.33 | -2.53 ± 0.48 |
| AUUGAGCAAUAUUACGCUCC | -1.83 ± 0.44 | – |
| AUUGAGCAAUAUUACGGACU | -2.64 ± 0.21 | -0.639 ± 0.14 |
| AUUGAGCAAUAUUACGGAUC | -4.03 ± 0.47 | -2.65 ± 0.38 |
| AUUGAGCAAUAUUACGGCCC | – | 0.679 ± 0.5 |
| AUUGAGCAAUAUUACGGCGC | -0.865 ± 0.23 | -0.384 ± 0.17 |
| AUUGAGCAAUAUUACGGCUU | -2.62 ± 0.21 | -0.8 ± 0.17 |
| AUUGAGCAAUAUUACGUAUC | -1.48 ± 0.36 | – |
| AUUGAGCAAUAUUACGUAUU | -4.59 ± 0.38 | -1.25 ± 0.16 |
| AUUGAGCAAUAUUACGUCAC | -3.9 ± 0.34 | -2.34 ± 0.39 |
| AUUGAGCAAUAUUACGUCCG | -2.58 ± 0.16 | -2.91 ± 0.48 |
| AUUGAGCAAUAUUACGUCGC | – | -1.8 ± 0.46 |
| AUUGAGCAAUAUUACGUCGU | -1.59 ± 0.15 | -1.69 ± 0.17 |
| AUUGAGCAAUAUUACGUCUA | -2.12 ± 0.17 | -1.77 ± 0.21 |
| AUUGAGCAAUAUUACGUGAU | -1.58 ± 0.14 | -2.17 ± 0.22 |
| AUUGAGCAAUAUUACGUGGG | – | -1.57 ± 0.19 |
| AUUGAGCAAUAUUACGUUGC | -2.94 ± 0.33 | -1.64 ± 0.18 |
| AUUUAGCAAUAUUACGAAAC | -2.83 ± 0.22 | -2 ± 0.27 |
| AUUUAGCAAUAUUACGAAAG | -2.86 ± 0.25 | -0.748 ± 0.17 |
| AUUUAGCAAUAUUACGACAG | -2.19 ± 0.24 | 0.257 ± 0.26 |
| AUUUAGCAAUAUUACGACUU | -0.092 ± 0.059 | 0.239 ± 0.067 |
| AUUUAGCAAUAUUACGAGUA | -2.95 ± 0.27 | -0.93 ± 0.18 |

| Sequence | self-splicing fitness (ln) (30 °C) | self-splicing fitness (ln) (37 °C) |
| --- | --- | --- |
| AUUUAGCAAUAUUACGAUCA | -1.08 ± 0.19 | 0.104 ± 0.16 |
| AUUUAGCAAUAUUACGCACA | -0.136 ± 0.093 | -0.202 ± 0.095 |
| AUUUAGCAAUAUUACGCCGC | -1.8 ± 0.41 | -1.82 ± 0.48 |
| AUUUAGCAAUAUUACGCCUG | -1.23 ± 0.12 | -0.529 ± 0.12 |
| AUUUAGCAAUAUUACGGAAA | -2.75 ± 0.29 | -1.47 ± 0.21 |
| AUUUAGCAAUAUUACGGAGC | -3.49 ± 0.45 | – |
| AUUUAGCAAUAUUACGGGUA | -2.72 ± 0.3 | -1.17 ± 0.17 |
| AUUUAGCAAUAUUACGUCAA | -3.4 ± 0.29 | -2.14 ± 0.34 |
| AUUUAGCAAUAUUACGUCAU | -1.76 ± 0.1 | -0.485 ± 0.1 |
| AUUUAGCAAUAUUACGUGCC | -0.606 ± 0.15 | 0.118 ± 0.14 |
| AUUUAGCAAUAUUACGUGGG | -3.33 ± 0.3 | -2.44 ± 0.3 |
| AUUUAGCAAUAUUACGUGGU | -2.91 ± 0.18 | -2.45 ± 0.29 |
| CAAAAGCAAUAUUACGAAAA | -2.35 ± 0.18 | -2.11 ± 0.2 |
| CAAAAGCAAUAUUACGAACC | -1.63 ± 0.31 | -1.45 ± 0.28 |
| CAAAAGCAAUAUUACGACAA | -1.85 ± 0.13 | -1.64 ± 0.15 |
| CAAAAGCAAUAUUACGACCC | -1.54 ± 0.15 | -1.72 ± 0.32 |
| CAAAAGCAAUAUUACGAGGA | -3.08 ± 0.19 | -2.14 ± 0.15 |
| CAAAAGCAAUAUUACGAUAU | -4.43 ± 0.25 | -2.23 ± 0.18 |
| CAAAAGCAAUAUUACGAUGA | -0.319 ± 0.074 | -0.167 ± 0.075 |
| CAAAAGCAAUAUUACGAUUC | -2.41 ± 0.11 | -0.98 ± 0.089 |
| CAAAAGCAAUAUUACGCCGC | – | -1.32 ± 0.48 |
| CAAAAGCAAUAUUACGCCUG | -1.07 ± 0.13 | -0.273 ± 0.13 |
| CAAAAGCAAUAUUACGCGUG | -3.22 ± 0.11 | -2.11 ± 0.14 |
| CAAAAGCAAUAUUACGCUCA | -1.64 ± 0.11 | -0.465 ± 0.13 |
| CAAAAGCAAUAUUACGCUGA | -3.25 ± 0.2 | -1.81 ± 0.15 |

| Sequence | self-splicing fitness (ln) (30 °C) | self-splicing fitness (ln) (37 °C) |
| --- | --- | --- |
| CAAAAGCAAUAUUACGGAUU | -3.49 ± 0.1 | -2.87 ± 0.1 |
| CAAAAGCAAUAUUACGGCGC | -2.33 ± 0.13 | -1.5 ± 0.18 |
| CAAAAGCAAUAUUACGGCUG | -1.3 ± 0.088 | -0.592 ± 0.11 |
| CAAAAGCAAUAUUACGGGAU | -3.95 ± 0.19 | -3.04 ± 0.22 |
| CAAAAGCAAUAUUACGGGCC | -3.65 ± 0.27 | -2.28 ± 0.28 |
| CAAAAGCAAUAUUACGGGCG | -0.0633 ± 0.084 | 0.608 ± 0.11 |
| CAAAAGCAAUAUUACGGGGC | -3.66 ± 0.26 | -3.02 ± 0.23 |
| CAAAAGCAAUAUUACGGGUU | -3.28 ± 0.14 | -2.46 ± 0.16 |
| CAAAAGCAAUAUUACGGUAG | -0.372 ± 0.058 | -0.148 ± 0.074 |
| CAAAAGCAAUAUUACGGUGG | -1.13 ± 0.052 | -0.335 ± 0.073 |
| CAAAAGCAAUAUUACGUAAG | -0.419 ± 0.047 | 0.0644 ± 0.059 |
| CAAAAGCAAUAUUACGUCAU | -2.71 ± 0.17 | -2.48 ± 0.22 |
| CAAAAGCAAUAUUACGUGAA | -2.73 ± 0.085 | -1.63 ± 0.099 |
| CAAAAGCAAUAUUACGUGCU | -4.33 ± 0.2 | -2.27 ± 0.15 |
| CAAAAGCAAUAUUACGUGGU | -3.65 ± 0.11 | -2.49 ± 0.11 |
| CAAAAGCAAUAUUACGUUAU | -3.96 ± 0.13 | -2.5 ± 0.12 |
| CAAAAGCAAUAUUACGUUUA | -2.19 ± 0.13 | -1.3 ± 0.13 |
| CAACAGCAAUAUUACGAAAA | -2.73 ± 0.3 | -1.38 ± 0.26 |
| CAACAGCAAUAUUACGAACG | 0.0149 ± 0.065 | 0.73 ± 0.084 |
| CAACAGCAAUAUUACGAGAG | -3.41 ± 0.13 | -1.91 ± 0.11 |
| CAACAGCAAUAUUACGAGCU | -3.61 ± 0.18 | -2.44 ± 0.17 |
| CAACAGCAAUAUUACGCACC | -3.36 ± 0.34 | -0.879 ± 0.3 |
| CAACAGCAAUAUUACGCCUG | -1.23 ± 0.088 | -0.914 ± 0.11 |
